Source: the supplement of paper PMC10065799, “High-throughput profiling of sequence recognition by tyrosine kinases and SH2 domains using bacterial peptide display” (eLife, 2023)

Key:
[1] = target: EPHB2 (UniProt P29323); test: phosphorylation enrichment, bacterial display (enrichment ratio); higher = better substrate or ligand; peptides without Tyr show the background
[2] = target: FGFR1 (UniProt P11362); test: as above
[3] = test system: AncSZ; test: as above
[4] = target: MERTK (UniProt Q12866); test: as above
Chain of MERTK (Q12866 whole entry, looked up): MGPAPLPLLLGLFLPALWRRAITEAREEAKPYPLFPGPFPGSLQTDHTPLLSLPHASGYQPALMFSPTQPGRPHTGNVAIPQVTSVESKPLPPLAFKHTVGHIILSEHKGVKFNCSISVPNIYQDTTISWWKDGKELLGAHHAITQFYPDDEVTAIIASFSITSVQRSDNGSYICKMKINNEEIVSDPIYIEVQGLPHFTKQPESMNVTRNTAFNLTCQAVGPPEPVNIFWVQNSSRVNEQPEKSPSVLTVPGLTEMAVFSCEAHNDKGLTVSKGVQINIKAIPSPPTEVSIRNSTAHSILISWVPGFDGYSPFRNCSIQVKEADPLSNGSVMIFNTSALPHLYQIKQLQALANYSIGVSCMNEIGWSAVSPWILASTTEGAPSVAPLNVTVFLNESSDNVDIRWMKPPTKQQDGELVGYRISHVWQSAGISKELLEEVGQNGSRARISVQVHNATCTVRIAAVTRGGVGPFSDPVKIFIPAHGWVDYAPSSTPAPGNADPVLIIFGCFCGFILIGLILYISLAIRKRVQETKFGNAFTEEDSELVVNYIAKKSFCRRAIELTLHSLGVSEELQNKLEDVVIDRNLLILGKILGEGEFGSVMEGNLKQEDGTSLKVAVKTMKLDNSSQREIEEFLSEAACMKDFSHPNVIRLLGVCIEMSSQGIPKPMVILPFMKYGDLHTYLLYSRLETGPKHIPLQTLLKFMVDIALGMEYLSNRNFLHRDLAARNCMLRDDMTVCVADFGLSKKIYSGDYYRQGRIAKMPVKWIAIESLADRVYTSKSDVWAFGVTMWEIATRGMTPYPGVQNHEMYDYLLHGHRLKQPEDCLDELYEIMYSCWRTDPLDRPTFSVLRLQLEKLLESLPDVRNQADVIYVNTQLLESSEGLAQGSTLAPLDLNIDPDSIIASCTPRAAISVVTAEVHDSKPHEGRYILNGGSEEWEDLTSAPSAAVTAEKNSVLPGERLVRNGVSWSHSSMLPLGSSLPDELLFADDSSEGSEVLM

[5] = target: Hck (UniProt P08631); test: as above
Chain of Hck (P08631 whole entry, looked up): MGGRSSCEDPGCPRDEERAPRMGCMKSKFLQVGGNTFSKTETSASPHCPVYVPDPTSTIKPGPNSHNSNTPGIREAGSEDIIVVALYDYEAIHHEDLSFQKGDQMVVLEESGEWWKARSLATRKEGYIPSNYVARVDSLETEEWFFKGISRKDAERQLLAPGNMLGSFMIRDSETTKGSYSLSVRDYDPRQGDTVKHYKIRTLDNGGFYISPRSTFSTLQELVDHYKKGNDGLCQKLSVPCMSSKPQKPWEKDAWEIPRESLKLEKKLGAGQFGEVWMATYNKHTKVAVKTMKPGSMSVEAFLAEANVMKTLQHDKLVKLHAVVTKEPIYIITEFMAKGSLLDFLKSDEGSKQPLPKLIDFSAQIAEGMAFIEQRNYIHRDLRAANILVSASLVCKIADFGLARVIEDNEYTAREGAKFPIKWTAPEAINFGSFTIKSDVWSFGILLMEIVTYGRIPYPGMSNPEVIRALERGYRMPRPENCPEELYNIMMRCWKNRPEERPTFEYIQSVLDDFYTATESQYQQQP

[6] = test system: Fer (mouse); test: as above
[7] = test system: c-Src; test: as above
[8] = target: FGFR3 (UniProt P22607); test: as above
Chain of FGFR3 (P22607 whole entry, looked up): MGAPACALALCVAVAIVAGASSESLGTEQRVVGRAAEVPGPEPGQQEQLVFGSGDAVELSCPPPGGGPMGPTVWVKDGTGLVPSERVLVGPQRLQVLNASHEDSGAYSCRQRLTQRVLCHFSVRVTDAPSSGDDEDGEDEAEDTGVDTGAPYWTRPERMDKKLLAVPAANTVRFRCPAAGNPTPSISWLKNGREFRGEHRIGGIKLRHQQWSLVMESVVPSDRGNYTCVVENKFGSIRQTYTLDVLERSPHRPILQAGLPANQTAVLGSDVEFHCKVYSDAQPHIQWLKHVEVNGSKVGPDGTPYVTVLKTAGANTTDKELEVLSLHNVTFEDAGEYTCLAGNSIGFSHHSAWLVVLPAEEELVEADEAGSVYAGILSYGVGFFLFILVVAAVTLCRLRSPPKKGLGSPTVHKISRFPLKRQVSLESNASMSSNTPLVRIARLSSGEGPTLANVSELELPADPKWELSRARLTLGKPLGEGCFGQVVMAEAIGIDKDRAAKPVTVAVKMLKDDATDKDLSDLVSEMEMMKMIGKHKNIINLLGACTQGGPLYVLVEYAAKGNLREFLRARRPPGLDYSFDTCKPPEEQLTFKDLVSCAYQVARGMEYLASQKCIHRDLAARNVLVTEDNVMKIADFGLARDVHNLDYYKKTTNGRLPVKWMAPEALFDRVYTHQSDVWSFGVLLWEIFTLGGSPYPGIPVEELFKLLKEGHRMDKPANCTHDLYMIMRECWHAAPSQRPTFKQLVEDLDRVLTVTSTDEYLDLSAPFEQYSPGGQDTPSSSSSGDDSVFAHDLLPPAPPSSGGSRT

[9] = target: EPHB1 (UniProt P54762); test: as above
[10] = test system: c-Abl (mouse); test: as above
[11] = target: Fyn (UniProt P06241); test: as above
Chain of Fyn (P06241 whole entry, looked up): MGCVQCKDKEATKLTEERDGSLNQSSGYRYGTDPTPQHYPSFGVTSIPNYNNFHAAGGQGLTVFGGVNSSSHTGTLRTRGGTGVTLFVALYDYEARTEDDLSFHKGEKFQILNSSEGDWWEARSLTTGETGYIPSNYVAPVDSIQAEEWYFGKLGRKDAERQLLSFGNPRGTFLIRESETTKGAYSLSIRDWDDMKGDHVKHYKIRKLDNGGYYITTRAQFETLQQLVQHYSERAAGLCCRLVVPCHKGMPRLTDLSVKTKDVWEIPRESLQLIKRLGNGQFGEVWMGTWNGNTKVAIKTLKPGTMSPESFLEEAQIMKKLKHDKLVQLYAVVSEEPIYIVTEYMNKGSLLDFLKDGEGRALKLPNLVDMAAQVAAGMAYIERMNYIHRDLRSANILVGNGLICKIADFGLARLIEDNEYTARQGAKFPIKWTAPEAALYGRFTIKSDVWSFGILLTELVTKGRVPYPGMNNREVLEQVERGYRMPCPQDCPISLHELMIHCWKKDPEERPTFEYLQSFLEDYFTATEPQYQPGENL

[12] = target: Fes (UniProt P07332); test: as above
Chain of Fes (P07332 whole entry, looked up): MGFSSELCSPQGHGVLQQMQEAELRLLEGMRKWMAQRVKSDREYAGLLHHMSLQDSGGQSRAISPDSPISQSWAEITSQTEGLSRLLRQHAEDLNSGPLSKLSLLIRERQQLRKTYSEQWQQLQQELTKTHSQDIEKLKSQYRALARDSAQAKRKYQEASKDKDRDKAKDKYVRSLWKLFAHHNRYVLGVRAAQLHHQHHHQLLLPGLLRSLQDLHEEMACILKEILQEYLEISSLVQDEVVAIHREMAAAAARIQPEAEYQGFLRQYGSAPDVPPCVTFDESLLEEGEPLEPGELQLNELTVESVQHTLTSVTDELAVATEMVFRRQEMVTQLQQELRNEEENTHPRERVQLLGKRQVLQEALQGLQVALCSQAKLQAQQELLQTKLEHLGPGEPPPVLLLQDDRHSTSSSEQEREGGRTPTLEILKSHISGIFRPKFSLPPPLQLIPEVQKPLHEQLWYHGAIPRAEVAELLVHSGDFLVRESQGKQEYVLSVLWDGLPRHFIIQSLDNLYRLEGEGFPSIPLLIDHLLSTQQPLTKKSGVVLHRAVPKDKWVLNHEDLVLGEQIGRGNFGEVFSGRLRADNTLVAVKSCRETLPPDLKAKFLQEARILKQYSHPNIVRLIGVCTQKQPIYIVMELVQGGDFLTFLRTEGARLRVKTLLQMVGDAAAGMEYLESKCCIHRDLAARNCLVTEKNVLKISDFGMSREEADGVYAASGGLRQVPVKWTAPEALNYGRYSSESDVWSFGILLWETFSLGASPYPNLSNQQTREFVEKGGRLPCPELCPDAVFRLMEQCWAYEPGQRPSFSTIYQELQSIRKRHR

[13] = target: Jak2 (UniProt O60674); test: as above
[14] = target: Grb2 SH2 (UniProt P62993); test: SH2 binding enrichment of the phosphorylated peptide, bacterial display (enrichment ratio); higher = better substrate or ligand; peptides without Tyr show the background
Chain of Grb2 SH2 (P62993 whole entry, looked up): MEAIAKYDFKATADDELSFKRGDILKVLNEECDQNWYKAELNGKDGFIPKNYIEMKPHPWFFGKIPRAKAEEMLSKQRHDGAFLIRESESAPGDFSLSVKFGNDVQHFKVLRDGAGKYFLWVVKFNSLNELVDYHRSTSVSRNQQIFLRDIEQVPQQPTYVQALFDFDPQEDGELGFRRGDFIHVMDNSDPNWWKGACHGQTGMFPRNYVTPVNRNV

[15] = target: SHP2-C SH2; test: as above
[16] = target: c-Src SH2; test: as above
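For SH2 binding enrichment of the phosphorylated peptide, bacterial display in this document: peptide library displayed on the E. coli surface as eCPX fusions, selected cells deep-sequenced, score is each peptide's frequency after selection divided by its frequency in the input.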
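For phosphorylation enrichment, bacterial display in this document: 11-residue human phosphosite peptides and single-mutation variants displayed on the E. coli surface, counted by deep sequencing, each peptide's frequency after selection divided by its frequency in the unselected input library; frequency after pTyr selection over input frequency; kinase dosed for 20-30% of maximal phosphorylation in three min.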

Chain of FGFR1 (P11362 whole entry, looked up): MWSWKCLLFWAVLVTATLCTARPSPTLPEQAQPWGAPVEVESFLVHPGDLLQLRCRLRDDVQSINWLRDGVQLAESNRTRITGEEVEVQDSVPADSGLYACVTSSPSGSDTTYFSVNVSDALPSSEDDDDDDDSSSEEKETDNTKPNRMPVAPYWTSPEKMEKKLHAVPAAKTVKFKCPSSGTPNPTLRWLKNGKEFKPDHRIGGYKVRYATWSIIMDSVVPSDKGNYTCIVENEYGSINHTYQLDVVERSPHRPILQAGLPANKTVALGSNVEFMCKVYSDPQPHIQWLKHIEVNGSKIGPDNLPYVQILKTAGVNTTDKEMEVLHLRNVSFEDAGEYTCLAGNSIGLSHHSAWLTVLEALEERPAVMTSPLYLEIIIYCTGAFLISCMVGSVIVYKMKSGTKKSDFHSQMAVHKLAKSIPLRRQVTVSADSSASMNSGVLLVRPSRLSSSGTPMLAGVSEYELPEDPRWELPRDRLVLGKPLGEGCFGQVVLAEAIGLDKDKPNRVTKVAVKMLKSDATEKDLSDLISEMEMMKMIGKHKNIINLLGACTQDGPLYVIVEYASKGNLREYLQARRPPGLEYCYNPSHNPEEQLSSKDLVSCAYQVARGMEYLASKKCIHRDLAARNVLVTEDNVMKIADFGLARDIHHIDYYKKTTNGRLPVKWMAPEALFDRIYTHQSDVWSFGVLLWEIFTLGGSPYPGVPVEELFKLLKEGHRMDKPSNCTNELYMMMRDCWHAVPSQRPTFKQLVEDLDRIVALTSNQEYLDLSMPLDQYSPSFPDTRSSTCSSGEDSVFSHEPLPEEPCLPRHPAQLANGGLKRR

| Sequence | phosphorylation enrichment [1] | phosphorylation enrichment [2] | phosphorylation enrichment [3] | phosphorylation enrichment [4] | phosphorylation enrichment [5] | phosphorylation enrichment [6] | phosphorylation enrichment [7] | phosphorylation enrichment [8] | phosphorylation enrichment [9] | phosphorylation enrichment [10] | phosphorylation enrichment [11] | phosphorylation enrichment [12] | phosphorylation enrichment [13] | SH2 binding enrichment [14] | SH2 binding enrichment [15] | SH2 binding enrichment [16] |
| --- | --- | --- | --- | --- | --- | --- | --- | --- | --- | --- | --- | --- | --- | --- | --- | --- |
| WRGMPYGGRGD [TGM1_Y312_R307W] | 0.401 | 0.388 | 0.548 | 0.363 | 0.39 | 0.31 | 0.419 | 0.486 | 0.34 | 0.396 | 0.467 | 0.514 | 0.482 | 1.19 | 0.739 | 0.709 |
| QPGTDYKIYLY [FN1_Y1970] | 0.759 | 0.705 | 1.74 | 0.501 | 0.86 | 0.792 | 0.804 | 0.846 | 0.939 | 1.04 | 0.715 | 1.55 | 1.69 | 0.741 | 0.753 | 0.466 |
| EEESCYILHSS [PATJ_Y783] | 0.625 | 0.621 | 1.63 | 0.484 | 0.57 | 0.926 | 0.819 | 0.853 | 0.637 | 0.892 | 0.659 | 1.35 | 1.31 | 0.944 | 0.79 | 0.744 |
| LVRPPYSFSAL [FOXI1_Y126_YF] | 0.46 | 0.395 | 0.602 | 0.363 | 0.423 | 0.479 | 0.409 | 0.434 | 0.385 | 0.465 | 0.419 | 0.618 | 0.553 | 0.809 | 0.562 | 0.478 |
| KVNKIYYPDFI [LIG3_Y767] | 0.45 | 4.13 | 0.727 | 1.05 | 0.668 | 0.481 | 0.724 | 3.46 | 0.536 | 0.589 | 0.607 | 0.762 | 0.68 | 0.834 | 0.695 | 0.636 |
| TAPFNYSFIFK [RAB14_Y8_YF] | 0.692 | 0.405 | 0.975 | 2.27 | 0.56 | 0.376 | 0.377 | 0.771 | 2 | 0.657 | 0.493 | 1.1 | 0.757 | 0.581 | 0.722 | 0.724 |
| PIPAAYNRYDQ [CDC73_Y290] | 0.571 | 0.541 | 0.71 | 0.263 | 0.507 | 0.593 | 0.342 | 0.621 | 0.433 | 0.572 | 0.736 | 0.751 | 0.416 | 0.75 | 0.559 | 0.5 |
| AEKPKYQINNI [TJP1_Y1602] | 0.802 | 0.383 | 0.541 | 0.349 | 0.366 | 0.368 | 0.363 | 0.427 | 0.366 | 0.548 | 0.341 | 0.682 | 0.704 | 0.906 | 0.766 | 0.508 |
| RAILNYIASKF [GSTA3_Y74_YF] | 0.86 | 1.08 | 1.84 | 1.7 | 0.854 | 0.994 | 1 | 0.861 | 0.534 | 1.96 | 0.66 | 1.73 | 1.29 | 0.927 | 0.611 | 0.461 |
| GNYSGYDDAWD [POLR1C_Y36] | 5.87 | 0.723 | 1.62 | 0.637 | 0.578 | 0.742 | 0.586 | 0.931 | 6.73 | 0.964 | 0.597 | 1.32 | 1.29 | 0.833 | 0.595 | 5.84 |
| HSRTRYERNIE [F2_Y434] | 0.531 | 0.835 | 1.08 | 0.763 | 0.766 | 1.14 | 0.683 | 0.663 | 0.851 | 0.929 | 0.465 | 0.986 | 0.742 | 1.31 | 1.37 | 0.752 |
| GDGRFYMMEAI [PGM1_Y66_K68M] | 0.553 | 0.511 | 1.04 | 0.46 | 0.459 | 0.539 | 0.88 | 0.731 | 0.569 | 0.735 | 0.51 | 1.26 | 1.16 | 0.683 | 0.584 | 0.419 |
| SVVVPYEPSEV [TP53_Y220_P223S] | 0.515 | 0.52 | 1.21 | 0.503 | 0.6 | 0.685 | 0.509 | 0.846 | 0.632 | 0.619 | 0.554 | 1.23 | 1.02 | 0.837 | 0.645 | 0.506 |
| KRGIDYILRHM [FRMD1_Y225] | 0.463 | 0.457 | 0.792 | 0.396 | 0.396 | 0.415 | 0.387 | 0.592 | 0.494 | 0.567 | 0.414 | 0.872 | 0.654 | 1.95 | 1.99 | 1.68 |
| FSDPSYVKQME [CDC5L_Y464_YF] | 0.581 | 0.558 | 0.867 | 0.407 | 0.505 | 0.452 | 0.411 | 1.36 | 0.476 | 0.471 | 0.532 | 0.939 | 0.704 | 0.883 | 0.892 | 0.518 |
| AEMKRYAESSS [RAI14_Y869] | 0.394 | 0.467 | 0.607 | 0.336 | 0.403 | 0.372 | 0.382 | 0.441 | 0.45 | 0.483 | 0.471 | 0.778 | 0.582 | 0.875 | 0.903 | 0.448 |
| GMKIVYVYVKK [DNAI2_Y5_E2K] | 0.594 | 0.479 | 1.11 | 0.418 | 0.459 | 0.605 | 0.473 | 0.587 | 0.567 | 0.801 | 0.466 | 1.12 | 0.899 | 1.23 | 0.741 | 0.646 |

| Sequence | phosphorylation enrichment [1] | phosphorylation enrichment [2] | phosphorylation enrichment [3] | phosphorylation enrichment [4] | phosphorylation enrichment [5] | phosphorylation enrichment [6] | phosphorylation enrichment [7] | phosphorylation enrichment [8] | phosphorylation enrichment [9] | phosphorylation enrichment [10] | phosphorylation enrichment [11] | phosphorylation enrichment [12] | phosphorylation enrichment [13] | SH2 binding enrichment [14] | SH2 binding enrichment [15] | SH2 binding enrichment [16] |
| --- | --- | --- | --- | --- | --- | --- | --- | --- | --- | --- | --- | --- | --- | --- | --- | --- |
| EGVPLYESATT [DCC_Y809] | 4.87 | 0.475 | 1.12 | 0.638 | 2.05 | 7.75 | 1.14 | 0.775 | 4.19 | 0.831 | 1.09 | 1.07 | 0.988 | 0.731 | 0.489 | 0.57 |
| YIGVTYKNKED [PDGFRA_Y993_E996K] | 0.505 | 0.819 | 0.896 | 0.44 | 0.753 | 0.533 | 0.476 | 0.747 | 0.564 | 0.675 | 0.505 | 1.07 | 0.809 | 0.835 | 1.39 | 0.961 |
| RVDRDYVLKST [HTATIP2_Y111_A116T] | 0.659 | 0.526 | 0.961 | 0.487 | 0.578 | 0.511 | 0.388 | 0.529 | 0.492 | 0.369 | 0.65 | 0.823 | 0.436 | 1.01 | 0.843 | 0.436 |
| LTAEVYFPSIK [C5orf64_Y60] | 0.906 | 0.866 | 1.78 | 0.648 | 1.06 | 0.963 | 0.75 | 1.88 | 0.966 | 1.64 | 1.02 | 2.04 | 0.996 | 0.763 | 0.708 | 0.453 |
| YFRDGYMPRQY [GSS_Y270] | 0.491 | 3.74 | 0.615 | 0.418 | 0.402 | 0.531 | 0.509 | 2.73 | 0.429 | 0.496 | 0.479 | 0.74 | 0.928 | 1.01 | 0.848 | 0.627 |
| VFLARYGPAWR [CYP2D6_Y124] | 0.598 | 0.468 | 1.12 | 0.472 | 0.548 | 0.413 | 0.603 | 0.501 | 0.405 | 0.52 | 0.434 | 1.21 | 0.793 | 0.948 | 0.703 | 0.572 |
| CTTIHYNFMCD [TP53_Y234_N239D_YF] | 0.499 | 0.399 | 0.985 | 0.424 | 0.481 | 0.49 | 0.538 | 0.674 | 0.545 | 0.768 | 0.442 | 1.11 | 1.03 | 1.74 | 1.85 | 3.31 |
| FDFKKYGKGLR [ZNF445_Y433_YF] | 0.436 | 0.575 | 0.531 | 0.389 | 0.45 | 0.304 | 0.484 | 0.498 | 0.426 | 0.392 | 0.318 | 0.671 | 0.525 | 1.19 | 0.751 | 1.14 |
| EEALFYLTRVE [SET_Y119_H118Y_YF] | 0.828 | 0.599 | 1.43 | 0.472 | 0.68 | 0.835 | 0.557 | 1.05 | 0.967 | 1.03 | 0.58 | 1.67 | 1.61 | 0.774 | 0.796 | 0.414 |
| LGSVVYAQSKE [KCNQ2_Y226_H228Q] | 0.97 | 0.852 | 1.61 | 1.1 | 1.29 | 0.99 | 1.08 | 1.39 | 1.86 | 1.24 | 1.08 | 1.31 | 1.19 | 0.974 | 1.6 | 0.528 |
| CRIELYRVVES [IGFBP1_Y181] | 0.68 | 0.545 | 1.2 | 0.46 | 0.574 | 0.537 | 0.437 | 0.887 | 0.989 | 0.759 | 0.476 | 1.29 | 1.11 | 0.819 | 0.653 | 0.538 |
| CTTIHKNYMCN [TP53_Y234_Y234K] | 0.503 | 0.499 | 0.733 | 0.484 | 0.409 | 0.406 | 0.404 | 0.56 | 0.515 | 0.603 | 0.395 | 0.792 | 0.702 | 1.05 | 1.16 | 0.866 |
| VKMLEYRGKDV [CASP5_Y74_L75R] | 0.416 | 0.489 | 0.68 | 0.443 | 0.46 | 0.495 | 0.465 | 0.473 | 0.459 | 0.523 | 0.476 | 0.737 | 0.792 | 0.618 | 0.628 | 0.386 |
| EQAERYDDMAA [YWHAG_Y20] | 0.51 | 0.547 | 1.22 | 0.407 | 0.501 | 0.501 | 0.426 | 0.737 | 0.508 | 0.653 | 0.537 | 1.03 | 0.87 | 0.966 | 0.617 | 1.3 |
| MNKNAYHNVTT [ST3GAL6_Y306_A311T] | 0.352 | 0.358 | 0.497 | 0.412 | 0.385 | 0.322 | 0.364 | 0.495 | 0.358 | 0.525 | 0.34 | 0.426 | 0.434 | 4.43 | 0.706 | 2.21 |
| IVEFAYNDKAI [PUM3_Y259_YF] | 0.59 | 0.432 | 0.783 | 0.494 | 0.52 | 0.406 | 0.474 | 0.525 | 0.395 | 0.538 | 0.475 | 0.74 | 0.668 | 0.642 | 0.719 | 0.419 |
